Legend:
[1] = system: NB100 human neuroblastoma cells; assay: Cell adhesion assay on coated wells, NB100 cells; assay type: cell-based; settings: for cell adhesion to wells coated with the protein: bound cells stained and quantified
Method: Cell adhesion assays were performed in accordance with procedures described by Luque et al. (FEBS Lett 1994 346:278-284). In these assays, 96-well immunoplates (MaxiSorp, Nunc, Denmark) were coated with 0.1 ml of PBS containing different amounts of BSA, glutathione S-transferase (GST), and ADAM 23/GST. After incubating 16 hours at 4° C., wells were blocked with DMEM containing 2.5% BSA, for 2 hours at 37° C. Then, NB100 neuroblastoma cells (approximately 50,000 cells per well) were added in Dulbecco's modified Eagle's medium (DMEM) supplemented with 1% BSA and incubated at 37° C. for 2 hours. For experiments directed to analyze the effect of divalent cations, the cells were washed three times in PBS, and resuspended in the same buffer supplemented either with 1 mM MgCl2, 50 μM MnCl2, 1 mM CaCl2, or 1 mM MgCl2 plus 5 mM EDTA. Non-bound cells were removed by rinsing the wells with serum-free medium, whereas bound cells were fixed with methanol and stained with Giemsa. Cells were counted per unit area with the aid of an inverted light microscope, using a 20× high powered objective and an ocular grid. For inhibition studies cells were pretreated for 30 minutes before the addition to the coated wells of mAb LM 609 (used at 1:400 dilution of ascites) or synthetic peptides (20 or 40 μg/ml) corresponding to the disintegrin loop of ADAM 23 (AVNEDCDIT, peptide 330 (SEQ ID NO:1)) or a “scrambled” peptide (DCVTNIAE, peptide 331 (SEQ ID NO:4)). In all cases, experimental treatments were performed in triplicate with a minimum of three areas counted per well.

endothelial cells = assay: Murine MATRIGEL plug angiogenesis model; assay type: in vivo, female athymic (BALB/c nu/nu) mice
Method: The angiogenic activity of ADAM 23 was evaluated in the murine MATRIGEL plug angiogenesis model. On day 0, ice-cold MATRIGEL (Becton-Dickinson, Bedford, Mass.) containing either vascular endothelial growth factor (VEGF, Pepro Tech, Inc., Rocky Hill, N.J.), basic fibroblast growth factor (bFGF, Pepro Tech, Inc., Rocky Hill, N.J.), […], saline buffer (PBS) or recombinant ADAM 23 disintegrin domain (dd) expressed as a GST fusion protein (GST-ADAM23dd) was implanted subcutaneously in female athymic (BALB/c nu/nu; Harlan, Indianapolis, Ind.) mice. The MATRIGEL polymerized immediately after implantation into mice forming a gel plug. On day 7, individual MATRIGEL plugs were harvested, fixed in 10% buffered formalin, embedded in paraffin, sectioned, and stained with hematoxylin-eosin. The number of endothelial cells present in each plug section was measured using a video imaging system (Image Pro-Plus, Empire Imaging, Princeton, N.J.). Fifty fields (at 20×) per plug section were randomly counted. Data are presented as “Average Number of Migrating Cells” and the p-value was determined using a two-tailed Student T-Test.

[2] = system: ADAM 23 mediated adhesion of NB100 neuroblastoma cells; assay: Inhibition of ADAM 23 mediated adhesion of NB100 cells; assay type: cell-based, human; settings: NB100 cells incubated with peptide (20 or 40 μg/ml) prior to seeding
Method: Cell adhesion assays were performed in accordance with procedures described by Luque et al. (FEBS Lett 1994 346:278-284). In these assays, 96-well immunoplates (MaxiSorp, Nunc, Denmark) were coated with 0.1 ml of PBS containing different amounts of BSA, glutathione S-transferase (GST), and ADAM 23/GST. After incubating 16 hours at 4° C., wells were blocked with DMEM containing 2.5% BSA, for 2 hours at 37° C. Then, NB100 neuroblastoma cells (approximately 50,000 cells per well) were added in Dulbecco's modified Eagle's medium (DMEM) supplemented with 1% BSA and incubated at 37° C. for 2 hours. For experiments directed to analyze the effect of divalent cations, the cells were washed three times in PBS, and resuspended in the same buffer supplemented either with 1 mM MgCl2, 50 μM MnCl2, 1 mM CaCl2, or 1 mM MgCl2 plus 5 mM EDTA. Non-bound cells were removed by rinsing the wells with serum-free medium, whereas bound cells were fixed with methanol and stained with Giemsa. Cells were counted per unit area with the aid of an inverted light microscope, using a 20× high powered objective and an ocular grid. […] In all cases, experimental treatments were performed in triplicate with a minimum of three areas counted per well.

HT1080 = assay: Cell adhesion assay on coated wells, HT1080 cells; assay type: cell-based
HeLa = assay: Cell adhesion assay on coated wells, HeLa cells; assay type: cell-based
T47D = assay: Cell adhesion assay on coated wells, T47D cells; assay type: cell-based
α1β1 = target: T1, α1β1 (Homo sapiens, UniProt P05556+P56199); assay: Sepharose bead binding of purified integrin (SDS-PAGE / Western blot)
T1 construct: purchased Chemicon International Inc., Temecula, Calif
T1 sequence (P56199 29-1179): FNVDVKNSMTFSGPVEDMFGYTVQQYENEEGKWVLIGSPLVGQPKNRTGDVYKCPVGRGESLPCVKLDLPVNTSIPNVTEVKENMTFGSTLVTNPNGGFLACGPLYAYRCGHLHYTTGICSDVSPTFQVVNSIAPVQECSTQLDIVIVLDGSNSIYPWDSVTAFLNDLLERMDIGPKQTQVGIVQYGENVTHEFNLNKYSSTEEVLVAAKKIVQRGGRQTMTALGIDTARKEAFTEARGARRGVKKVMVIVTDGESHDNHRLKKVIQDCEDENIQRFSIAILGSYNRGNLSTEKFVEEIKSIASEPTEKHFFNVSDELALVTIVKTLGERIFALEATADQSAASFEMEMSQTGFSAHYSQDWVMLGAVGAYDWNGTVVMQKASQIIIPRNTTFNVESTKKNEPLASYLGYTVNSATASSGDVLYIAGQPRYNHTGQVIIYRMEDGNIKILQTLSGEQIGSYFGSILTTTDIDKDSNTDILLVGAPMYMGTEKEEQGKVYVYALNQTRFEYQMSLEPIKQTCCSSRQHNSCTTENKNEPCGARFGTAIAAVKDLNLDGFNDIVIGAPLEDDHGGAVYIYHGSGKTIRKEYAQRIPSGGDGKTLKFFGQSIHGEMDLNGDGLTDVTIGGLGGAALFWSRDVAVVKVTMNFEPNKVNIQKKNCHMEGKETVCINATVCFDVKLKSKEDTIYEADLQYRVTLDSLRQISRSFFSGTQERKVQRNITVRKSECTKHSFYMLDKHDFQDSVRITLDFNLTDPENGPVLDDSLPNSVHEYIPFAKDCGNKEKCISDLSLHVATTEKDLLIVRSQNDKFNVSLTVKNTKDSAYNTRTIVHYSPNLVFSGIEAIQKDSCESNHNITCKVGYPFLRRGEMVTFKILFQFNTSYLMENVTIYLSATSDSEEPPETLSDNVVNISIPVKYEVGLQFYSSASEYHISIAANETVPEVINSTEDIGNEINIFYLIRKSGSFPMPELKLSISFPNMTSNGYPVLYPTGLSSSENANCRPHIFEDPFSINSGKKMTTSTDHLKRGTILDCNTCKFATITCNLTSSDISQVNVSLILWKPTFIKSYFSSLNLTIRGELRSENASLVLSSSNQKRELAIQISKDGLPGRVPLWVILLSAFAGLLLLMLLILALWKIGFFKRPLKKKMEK
T1 sequence (P05556 21-798): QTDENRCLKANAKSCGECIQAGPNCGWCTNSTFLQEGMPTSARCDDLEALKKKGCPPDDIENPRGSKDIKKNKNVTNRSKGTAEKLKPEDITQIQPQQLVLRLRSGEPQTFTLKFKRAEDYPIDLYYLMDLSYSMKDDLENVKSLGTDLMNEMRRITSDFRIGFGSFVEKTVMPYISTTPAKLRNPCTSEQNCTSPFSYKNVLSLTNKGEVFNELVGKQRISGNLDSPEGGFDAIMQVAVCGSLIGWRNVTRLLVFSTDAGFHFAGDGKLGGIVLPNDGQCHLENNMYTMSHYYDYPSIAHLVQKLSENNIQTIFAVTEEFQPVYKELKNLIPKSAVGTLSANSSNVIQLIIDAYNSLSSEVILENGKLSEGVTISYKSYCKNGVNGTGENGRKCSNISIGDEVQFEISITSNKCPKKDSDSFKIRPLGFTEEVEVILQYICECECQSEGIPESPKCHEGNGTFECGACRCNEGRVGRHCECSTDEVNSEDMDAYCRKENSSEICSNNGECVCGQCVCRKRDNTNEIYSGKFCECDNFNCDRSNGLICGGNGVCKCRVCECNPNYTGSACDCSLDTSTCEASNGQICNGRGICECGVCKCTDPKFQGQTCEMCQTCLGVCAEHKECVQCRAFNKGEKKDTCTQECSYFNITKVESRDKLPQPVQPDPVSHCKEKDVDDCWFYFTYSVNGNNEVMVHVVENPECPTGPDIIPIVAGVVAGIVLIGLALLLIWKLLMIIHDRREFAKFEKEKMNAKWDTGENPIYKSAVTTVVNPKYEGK
Method: (§1) Purified integrins ([…] αvβ3, α1β1 or α5β1) (Chemicon International Inc., Temecula, Calif.) were incubated with Sepharose 4B beads containing 0.5 μg of disintegrin-GST, in a buffer containing 50 mM Tris-HCl, 200 mM NaCl and 0.2 mM MnCl2 (pH 7.4), for 4 hours at 37° C. After incubation, beads were washed six times with 200 μl of the same buffer to remove unbound protein. Beads were then resuspended in Laemmli buffer and after boiling, solubilized proteins were loaded in a 6% SDS-PAGE gel, and visualized by silver staining. Alternatively, samples were blotted to a nitrocellulose membrane and the presence of αv or β3 integrin subunits was detected using polyclonal antibodies raised against these subunits. Similarly, the putative presence of β1 integrin subunits was examined with the B3B11 monoclonal antibody (Chemicon International Inc.). Western-blots were visualized by enhanced chemiluminescence according to the manufacturer s instructions (ECL, Amersham).

α5β1 = target: T2, α5β1 (Homo sapiens, UniProt P05556+P08648); assay: as above
T2 construct: purchased Chemicon International Inc., Temecula, Calif
T2 sequence (P08648 42-894 limits assumed): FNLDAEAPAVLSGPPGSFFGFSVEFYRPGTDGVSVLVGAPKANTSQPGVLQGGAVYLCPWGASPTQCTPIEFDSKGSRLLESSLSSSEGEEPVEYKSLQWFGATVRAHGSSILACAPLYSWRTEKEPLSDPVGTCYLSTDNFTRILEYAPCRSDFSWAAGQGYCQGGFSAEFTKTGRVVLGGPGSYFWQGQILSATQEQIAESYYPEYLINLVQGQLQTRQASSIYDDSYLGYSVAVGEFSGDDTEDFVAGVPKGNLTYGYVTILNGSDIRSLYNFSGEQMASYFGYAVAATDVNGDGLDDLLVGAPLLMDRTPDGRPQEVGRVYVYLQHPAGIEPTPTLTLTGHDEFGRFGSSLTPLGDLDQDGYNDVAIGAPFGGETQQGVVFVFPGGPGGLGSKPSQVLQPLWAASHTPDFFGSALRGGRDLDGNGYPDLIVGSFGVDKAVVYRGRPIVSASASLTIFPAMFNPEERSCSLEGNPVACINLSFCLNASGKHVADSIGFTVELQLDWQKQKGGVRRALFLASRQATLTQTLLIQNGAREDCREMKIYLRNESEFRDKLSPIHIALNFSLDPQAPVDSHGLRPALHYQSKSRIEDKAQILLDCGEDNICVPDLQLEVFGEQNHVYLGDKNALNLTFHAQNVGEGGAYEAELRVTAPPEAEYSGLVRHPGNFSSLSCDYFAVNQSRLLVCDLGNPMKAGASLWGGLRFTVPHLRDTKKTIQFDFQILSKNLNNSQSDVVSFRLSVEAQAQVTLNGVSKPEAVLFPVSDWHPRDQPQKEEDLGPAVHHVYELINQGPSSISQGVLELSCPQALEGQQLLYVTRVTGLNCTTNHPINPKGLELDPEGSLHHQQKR
T2 sequence (P08648 895-1049 partner limits assumed): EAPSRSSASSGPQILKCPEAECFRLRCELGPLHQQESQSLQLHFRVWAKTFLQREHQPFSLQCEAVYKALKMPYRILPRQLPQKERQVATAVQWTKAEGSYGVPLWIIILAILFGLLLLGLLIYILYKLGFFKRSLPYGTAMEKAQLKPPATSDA
T2 sequence (P05556 21-798): as the sequence (P05556 21-798) above
Method: as §1

αvβ3 integrin = target: T3, αvβ3 integrin (Homo sapiens, UniProt P05106+P06756); assay: as above; settings: confirmed by Western blot
T3 construct: purchased Chemicon International Inc., Temecula, Calif
T3 sequence (P06756 31-889 limits assumed): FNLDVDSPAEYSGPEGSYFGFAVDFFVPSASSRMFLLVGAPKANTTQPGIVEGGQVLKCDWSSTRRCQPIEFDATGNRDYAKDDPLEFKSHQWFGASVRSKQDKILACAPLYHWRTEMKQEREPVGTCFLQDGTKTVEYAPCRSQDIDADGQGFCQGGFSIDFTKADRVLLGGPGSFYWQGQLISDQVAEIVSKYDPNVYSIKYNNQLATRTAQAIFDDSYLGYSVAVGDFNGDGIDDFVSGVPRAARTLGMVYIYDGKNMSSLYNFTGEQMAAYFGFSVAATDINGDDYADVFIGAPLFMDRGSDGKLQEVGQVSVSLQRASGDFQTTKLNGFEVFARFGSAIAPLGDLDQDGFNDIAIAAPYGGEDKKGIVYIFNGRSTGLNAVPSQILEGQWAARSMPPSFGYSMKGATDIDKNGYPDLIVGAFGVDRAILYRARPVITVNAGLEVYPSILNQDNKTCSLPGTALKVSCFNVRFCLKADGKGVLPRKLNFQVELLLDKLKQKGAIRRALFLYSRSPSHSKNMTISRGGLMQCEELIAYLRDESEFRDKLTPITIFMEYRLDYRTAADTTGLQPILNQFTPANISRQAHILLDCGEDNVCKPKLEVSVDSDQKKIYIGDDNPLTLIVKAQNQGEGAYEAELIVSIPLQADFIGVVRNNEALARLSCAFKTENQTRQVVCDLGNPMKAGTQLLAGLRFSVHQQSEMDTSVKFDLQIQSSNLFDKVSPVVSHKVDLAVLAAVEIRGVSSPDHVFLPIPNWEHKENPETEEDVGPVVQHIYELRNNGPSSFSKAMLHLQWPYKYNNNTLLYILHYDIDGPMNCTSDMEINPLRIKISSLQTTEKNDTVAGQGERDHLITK
T3 sequence (P06756 891-1048 partner limits assumed): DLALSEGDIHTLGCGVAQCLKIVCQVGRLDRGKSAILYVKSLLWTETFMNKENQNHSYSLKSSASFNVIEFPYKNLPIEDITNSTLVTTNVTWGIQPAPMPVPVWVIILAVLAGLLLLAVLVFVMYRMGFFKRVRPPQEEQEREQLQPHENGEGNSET
T3 sequence (P05106 27-788): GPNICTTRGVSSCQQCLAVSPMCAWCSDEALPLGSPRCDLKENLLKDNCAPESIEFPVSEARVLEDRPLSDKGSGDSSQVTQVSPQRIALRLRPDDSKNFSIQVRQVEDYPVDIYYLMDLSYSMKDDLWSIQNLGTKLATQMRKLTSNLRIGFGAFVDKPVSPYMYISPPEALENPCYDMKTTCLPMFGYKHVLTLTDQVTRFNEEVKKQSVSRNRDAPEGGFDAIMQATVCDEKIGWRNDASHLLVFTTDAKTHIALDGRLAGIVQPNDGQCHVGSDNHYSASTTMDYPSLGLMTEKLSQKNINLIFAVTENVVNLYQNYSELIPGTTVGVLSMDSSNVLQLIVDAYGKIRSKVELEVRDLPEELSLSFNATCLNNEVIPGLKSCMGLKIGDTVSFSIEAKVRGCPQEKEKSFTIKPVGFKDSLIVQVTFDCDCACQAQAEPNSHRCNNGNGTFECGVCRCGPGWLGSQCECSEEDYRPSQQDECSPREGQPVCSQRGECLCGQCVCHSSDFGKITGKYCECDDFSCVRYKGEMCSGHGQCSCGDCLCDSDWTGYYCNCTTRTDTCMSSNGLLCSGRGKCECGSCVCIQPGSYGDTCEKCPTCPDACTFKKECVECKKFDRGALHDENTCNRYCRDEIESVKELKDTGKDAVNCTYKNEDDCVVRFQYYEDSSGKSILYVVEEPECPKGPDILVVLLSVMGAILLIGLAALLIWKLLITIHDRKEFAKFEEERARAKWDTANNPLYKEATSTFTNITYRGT
Method: as §1

fibronectin [reference compound]
cell adhesion to wells coated with the protein [1]: promoted cell adhesion

GST: glutathione S-transferase, control protein for the fusion protein [reference compound]
cell adhesion to wells coated with the protein [1]: did not support any significant cell adhesion | angiogenic response (cells in MATRIGEL plug sections) (endothelial cells; subcutaneous plug, harvested day 7): a significant number of cells was not observed

albumin: albumin used as control coating of wells [reference compound]
cell adhesion to wells coated with the protein [1]: did not support any significant cell adhesion

AVNECDIT [pep330]
effect of peptide on adherent cells on plates containing ADAM 23 [2]: significant loss of adherent cells

DCVTNIAE [pep331, reference compound]
effect of peptide on adherent cells on plates containing ADAM 23 [2]: this effect was not observed

B1: ADAM 23-GST: recombinant ADAM 23 disintegrin domain expressed as a GST fusion protein in E. coli, about 40 kDa (protein)
chain: KLFEPTECGNGYVEAGEECDCGFHVECYGLCCKKCSLSNGAHCSDGPCCNNTSCLFQPRGYECRDAVNECDITEYCTGDSGQCPPNLHKQD
modifications: left off: a dimerising Fc or GST
notes: recombinant ADAM 23 disintegrin domain expressed as a GST fusion protein in E. coli, about 40 kDa
dose dependence of ADAM 23-promoted cell adhesiveness [1]: dose-dependent | attachment of cells in the presence of divalent cations ([1]; Mn2+ and Mg2+): stimulated | cell adhesion to wells coated with the protein [1]: promoted cell adhesion | ADAM 23-mediated adhesion (HT1080): no significant ADAM 23-mediated adhesion | ADAM 23-mediated adhesion (HeLa): no significant ADAM 23-mediated adhesion | ADAM 23-mediated adhesion (T47D): no significant ADAM 23-mediated adhesion | interaction with purified integrin (α1β1): did not reveal any evidence of interaction | interaction with purified integrin (α5β1): did not reveal any evidence of interaction | bound αvβ3 integrin (αv and β3 bands) on protein-containing beads (αvβ3 integrin): detected | dose dependence of angiogenic response (endothelial cells; 4, 20.5 or 61.5 μg/plug, day 7): dose-dependent | cell types in plug sections (microscopic histologic analyses) (endothelial cells; day 7, hematoxylin-eosin): both endothelial and smooth muscle cells were present

From patent US20030143692A1, “Methods and compositions for modulating integrin-mediated cell-cell interactions” (priority 2000, published 2003)
